B1: ARC1779 oligonucleotide core (no PEG) (mixed)
mixed: GCGUGCAGUGCCUUCGGCCGTGCGGTGCCUCCGUCACGC
modifications: same 2'-OMe/deoxy/PS/3'-inverted dT pattern as ARC1779, 5'-OH instead of hexylamine-PEG
B2: ARC1779 (mixed)
mixed: B1 mixed
modifications: mGmCmGmUdGdCdAmGmUmGmCmCmUmUmCmGmGmCdCmG-s-dTmGdCdGdGdTmGmCdCmUdCdCmGmUdCmAmCmGmC-3T (m 2'-OMe; d deoxy; s PS; 3T inverted dT), 5'-20 kDa PEG

Experiments:
[1] = target: von Willebrand factor (vWF) (Homo sapiens, UniProt P04275 P04275:764-2813); test: filter; text gives value as affinity of ARC1779 for vWF; PBS, 0.1 mg/ml BSA, room temperature 30 min; conditions: label: 5'-32P
von Willebrand factor (vWF), sequence (P04275 764-2813, one chain of several): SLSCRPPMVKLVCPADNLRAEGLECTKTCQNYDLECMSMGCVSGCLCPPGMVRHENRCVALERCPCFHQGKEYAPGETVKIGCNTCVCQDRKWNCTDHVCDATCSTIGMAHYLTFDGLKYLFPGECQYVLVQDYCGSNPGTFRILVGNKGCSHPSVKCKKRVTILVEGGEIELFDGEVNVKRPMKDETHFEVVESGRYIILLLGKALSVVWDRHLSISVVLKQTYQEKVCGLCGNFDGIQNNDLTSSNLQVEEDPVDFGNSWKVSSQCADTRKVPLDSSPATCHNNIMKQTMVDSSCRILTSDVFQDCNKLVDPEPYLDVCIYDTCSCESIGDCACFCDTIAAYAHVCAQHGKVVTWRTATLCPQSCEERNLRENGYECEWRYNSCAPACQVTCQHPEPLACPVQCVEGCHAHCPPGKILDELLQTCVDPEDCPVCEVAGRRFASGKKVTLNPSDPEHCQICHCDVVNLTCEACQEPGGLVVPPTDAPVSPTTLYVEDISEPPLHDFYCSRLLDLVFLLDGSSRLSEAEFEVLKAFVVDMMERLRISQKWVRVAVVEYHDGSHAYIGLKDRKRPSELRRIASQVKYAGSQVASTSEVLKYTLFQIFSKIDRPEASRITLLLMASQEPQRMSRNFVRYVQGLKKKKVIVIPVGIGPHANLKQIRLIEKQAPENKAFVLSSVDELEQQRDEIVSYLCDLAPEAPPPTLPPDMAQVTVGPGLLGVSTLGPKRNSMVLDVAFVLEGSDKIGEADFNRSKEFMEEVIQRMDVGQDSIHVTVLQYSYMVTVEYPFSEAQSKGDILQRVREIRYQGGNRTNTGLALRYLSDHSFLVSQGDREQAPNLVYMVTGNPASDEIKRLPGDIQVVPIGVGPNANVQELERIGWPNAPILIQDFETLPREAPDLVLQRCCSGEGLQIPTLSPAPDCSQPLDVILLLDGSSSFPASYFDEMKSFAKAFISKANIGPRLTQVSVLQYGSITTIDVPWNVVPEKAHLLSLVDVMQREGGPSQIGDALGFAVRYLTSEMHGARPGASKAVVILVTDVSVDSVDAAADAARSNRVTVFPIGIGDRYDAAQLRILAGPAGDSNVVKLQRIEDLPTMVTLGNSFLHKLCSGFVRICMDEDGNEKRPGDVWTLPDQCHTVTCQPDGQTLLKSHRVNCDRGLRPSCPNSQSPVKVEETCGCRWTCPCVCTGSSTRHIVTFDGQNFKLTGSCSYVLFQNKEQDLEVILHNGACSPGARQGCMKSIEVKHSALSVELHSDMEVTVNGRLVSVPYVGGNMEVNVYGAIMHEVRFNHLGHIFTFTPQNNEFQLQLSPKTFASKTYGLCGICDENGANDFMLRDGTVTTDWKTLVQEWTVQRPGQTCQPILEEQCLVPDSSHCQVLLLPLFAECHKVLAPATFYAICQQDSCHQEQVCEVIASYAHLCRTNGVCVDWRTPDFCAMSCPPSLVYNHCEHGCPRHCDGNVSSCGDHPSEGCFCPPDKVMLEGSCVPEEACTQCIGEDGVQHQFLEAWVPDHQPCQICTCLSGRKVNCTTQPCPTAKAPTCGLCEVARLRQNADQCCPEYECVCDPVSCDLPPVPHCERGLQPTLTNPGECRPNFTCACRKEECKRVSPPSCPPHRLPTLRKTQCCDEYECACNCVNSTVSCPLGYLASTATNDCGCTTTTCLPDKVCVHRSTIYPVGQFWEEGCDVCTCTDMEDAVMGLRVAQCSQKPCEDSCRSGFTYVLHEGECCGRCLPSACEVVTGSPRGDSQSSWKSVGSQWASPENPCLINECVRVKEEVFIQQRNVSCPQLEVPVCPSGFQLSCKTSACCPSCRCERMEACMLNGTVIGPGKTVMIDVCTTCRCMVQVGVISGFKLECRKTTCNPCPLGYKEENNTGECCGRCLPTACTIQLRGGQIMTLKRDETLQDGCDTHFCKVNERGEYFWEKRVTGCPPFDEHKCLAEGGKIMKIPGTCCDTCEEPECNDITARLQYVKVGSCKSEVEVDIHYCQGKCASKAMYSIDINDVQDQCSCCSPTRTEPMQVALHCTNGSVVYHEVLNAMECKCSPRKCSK
Description: For binding assays, the oligonucleotide core of ARC1779 was synthesized with a 5′-terminal hydroxyl moiety instead of a 5′ hexylamine and 20 kDa PEG and subsequently 5′-end labeled with γ-³²P ATP using T4 polynucleotide kinase (New England BioLabs, Beverly, Mass.). Aptamer was incubated at room temperature for 30 minutes in PBS containing 0.1 mg/ml BSA (as a specificity control) and increasing concentrations of human VWF. Bound complexes were separated from free DNA using an acrylic mini-dot blot apparatus (Schleicher and Schuell, Keene, N.H.) and a membrane sandwich (top to bottom) of Protran BA85 0.45 μm Nitrocellulose Membrane (Schleicher and Schuell, Keene, N.H.), Hybond P Nylon Membrane (Amersham, Piscataway, N.J.), and 3mM filter paper (Whatman, Florham Park, N.J.) all pre-wet with Dulbecco's PBS. Radioactivity associated with protein:DNA complexes (nitrocellulose) and free DNA (nylon) was quantified on a Storm 860 Phosphorimager (Molecular Dynamics/Amersham, Piscataway, N.J.). Binding constants were determined by fitting the fraction of aptamer bound as a function of the concentration of vWF.

[2] = target: von Willebrand factor (vWF), A1 domain sites in plasma/blood (Homo sapiens, UniProt P04275 P04275:764-2813); test: free vWF A1 sites activity ELISA, plasma after dosing of healthy volunteers, Emax fit; 0.22 ug/mL; EC90 151 nM; conditions: protein: extract
von Willebrand factor (vWF), A1 domain sites in plasma/blood, sequence (P04275 764-2813, one chain of several): as above

Binder | Kd [1] | EC50 [2]
B1 | ~2 nM | 
B2 |  | 17 nM
